The values that follow are results of earlier work, collected in PMC4769797.

For the data set, the target named is VEGFR1 (Homo sapiens) (UniProt P17948).
Sequence of UniProt P17948 (P17948 27-1338): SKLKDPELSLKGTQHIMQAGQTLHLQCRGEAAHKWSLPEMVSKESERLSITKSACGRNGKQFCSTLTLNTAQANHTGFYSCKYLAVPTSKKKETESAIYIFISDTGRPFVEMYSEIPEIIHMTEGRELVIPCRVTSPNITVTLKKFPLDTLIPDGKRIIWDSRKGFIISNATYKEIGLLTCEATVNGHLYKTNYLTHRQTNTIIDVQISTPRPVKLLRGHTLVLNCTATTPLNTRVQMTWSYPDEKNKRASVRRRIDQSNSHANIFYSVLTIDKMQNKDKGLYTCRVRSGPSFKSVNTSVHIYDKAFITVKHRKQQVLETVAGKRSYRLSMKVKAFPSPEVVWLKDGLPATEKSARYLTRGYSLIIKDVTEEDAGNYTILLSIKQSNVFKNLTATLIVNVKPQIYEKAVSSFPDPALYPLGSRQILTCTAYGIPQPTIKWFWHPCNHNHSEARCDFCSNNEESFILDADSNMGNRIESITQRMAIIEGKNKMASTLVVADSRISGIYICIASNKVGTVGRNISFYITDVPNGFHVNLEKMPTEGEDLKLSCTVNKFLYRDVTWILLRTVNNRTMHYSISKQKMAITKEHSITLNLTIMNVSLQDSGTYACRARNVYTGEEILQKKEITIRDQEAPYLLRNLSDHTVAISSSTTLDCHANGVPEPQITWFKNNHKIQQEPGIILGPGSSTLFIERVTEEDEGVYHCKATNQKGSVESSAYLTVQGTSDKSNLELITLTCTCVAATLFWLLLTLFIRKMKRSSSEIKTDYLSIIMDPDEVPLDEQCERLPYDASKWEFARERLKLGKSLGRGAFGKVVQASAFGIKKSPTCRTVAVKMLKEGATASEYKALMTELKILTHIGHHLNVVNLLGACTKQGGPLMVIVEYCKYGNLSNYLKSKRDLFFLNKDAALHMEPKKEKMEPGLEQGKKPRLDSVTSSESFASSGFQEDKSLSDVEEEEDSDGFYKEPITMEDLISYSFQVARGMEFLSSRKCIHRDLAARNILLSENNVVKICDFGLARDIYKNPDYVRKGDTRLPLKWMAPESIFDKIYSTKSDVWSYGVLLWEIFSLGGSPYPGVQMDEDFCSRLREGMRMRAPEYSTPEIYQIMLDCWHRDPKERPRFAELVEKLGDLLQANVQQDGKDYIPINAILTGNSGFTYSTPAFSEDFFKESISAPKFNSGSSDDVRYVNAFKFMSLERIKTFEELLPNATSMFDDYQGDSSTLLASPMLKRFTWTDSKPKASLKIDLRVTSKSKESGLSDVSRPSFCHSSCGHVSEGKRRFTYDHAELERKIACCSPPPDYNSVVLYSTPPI

Take VEGFA (from UniProt P15692): the Kd (usually the equilibrium constant for the complex coming apart) was 0.1 nM.
